Columns and labels:
[1] = biological target: ANAPC13; experiment: Strep-tactin pull-down, label-free quantification mass spectrometry; conditions: complexes SUMOylated in vitro, HeLa lysate added; three biological repeats measured in three technical repeats each
[2] = biological target: CDC27; experiment: as above; conditions: complexes SUMOylated in vitro, HeLa lysate added; three biological repeats measured in three technical repeats each
[3] = biological target: ANAPC1; experiment: as above; conditions: complexes SUMOylated in vitro, HeLa lysate added; three biological repeats measured in three technical repeats each
[4] = biological target: ANAPC15; experiment: as above; conditions: complexes SUMOylated in vitro, HeLa lysate added; three biological repeats measured in three technical repeats each
[5] = biological target: CDC23; experiment: as above; conditions: complexes SUMOylated in vitro, HeLa lysate added; three biological repeats measured in three technical repeats each
[6] = biological target: CDC16; experiment: as above; conditions: complexes SUMOylated in vitro, HeLa lysate added; three biological repeats measured in three technical repeats each
[7] = biological target: ANAPC16; experiment: as above; conditions: complexes SUMOylated in vitro, HeLa lysate added; three biological repeats measured in three technical repeats each
[8] = biological target: ANAPC10; experiment: as above; conditions: complexes SUMOylated in vitro, HeLa lysate added; three biological repeats measured in three technical repeats each
[9] = biological target: ANAPC5; experiment: as above; conditions: complexes SUMOylated in vitro, HeLa lysate added; three biological repeats measured in three technical repeats each
[10] = biological target: ANAPC2; experiment: as above; conditions: complexes SUMOylated in vitro, HeLa lysate added; three biological repeats measured in three technical repeats each
[11] = biological target: CDC26; experiment: as above; conditions: complexes SUMOylated in vitro, HeLa lysate added; three biological repeats measured in three technical repeats each
[12] = biological target: ANAPC13; experiment: Strep-tactin pull-down, mass spectrometry spectral counting; conditions: complexes SUMOylated in vitro, HeLa lysate added; three biological repeats measured in three technical repeats each
[13] = biological target: CDC27; experiment: as above; conditions: complexes SUMOylated in vitro, HeLa lysate added; three biological repeats measured in three technical repeats each
[14] = biological target: ANAPC1; experiment: as above; conditions: complexes SUMOylated in vitro, HeLa lysate added; three biological repeats measured in three technical repeats each
[15] = biological target: ANAPC15; experiment: as above; conditions: complexes SUMOylated in vitro, HeLa lysate added; three biological repeats measured in three technical repeats each
[16] = biological target: CDC23; experiment: as above; conditions: complexes SUMOylated in vitro, HeLa lysate added; three biological repeats measured in three technical repeats each
[17] = biological target: CDC16; experiment: as above; conditions: complexes SUMOylated in vitro, HeLa lysate added; three biological repeats measured in three technical repeats each
[18] = biological target: ANAPC16; experiment: as above; conditions: complexes SUMOylated in vitro, HeLa lysate added; three biological repeats measured in three technical repeats each
[19] = biological target: ANAPC10; experiment: as above; conditions: complexes SUMOylated in vitro, HeLa lysate added; three biological repeats measured in three technical repeats each
[20] = biological target: ANAPC5; experiment: as above; conditions: complexes SUMOylated in vitro, HeLa lysate added; three biological repeats measured in three technical repeats each
[21] = biological target: ANAPC2; experiment: as above; conditions: complexes SUMOylated in vitro, HeLa lysate added; three biological repeats measured in three technical repeats each
[22] = biological target: CDC26; experiment: as above; conditions: complexes SUMOylated in vitro, HeLa lysate added; three biological repeats measured in three technical repeats each
[23] = biological target: TUBA3C; experiment: Strep-tactin pull-down from HeLa lysate, label-free quantification mass spectrometry; conditions: three biological repeats measured in three technical repeats each; -log10(p-value) est. 4.2; read off a plot
[24] = biological target: HSP90AB4P; experiment: as above; conditions: three biological repeats measured in three technical repeats each; -log10(p-value) est. 1.0; read off a plot
[25] = biological target: Nbla03646; experiment: as above; conditions: three biological repeats measured in three technical repeats each; -log10(p-value) est. 2.1; read off a plot
[26] = biological target: LYST; experiment: as above; conditions: three biological repeats measured in three technical repeats each; -log10(p-value) est. 0.97; read off a plot
[27] = biological target: KIF18B (UniProt Q86Y91); experiment: as above; conditions: three biological repeats measured in three technical repeats each; -log10(p-value) est. 1.5; read off a plot
UniProt Q86Y91, sequence (Q86Y91 whole entry, looked up): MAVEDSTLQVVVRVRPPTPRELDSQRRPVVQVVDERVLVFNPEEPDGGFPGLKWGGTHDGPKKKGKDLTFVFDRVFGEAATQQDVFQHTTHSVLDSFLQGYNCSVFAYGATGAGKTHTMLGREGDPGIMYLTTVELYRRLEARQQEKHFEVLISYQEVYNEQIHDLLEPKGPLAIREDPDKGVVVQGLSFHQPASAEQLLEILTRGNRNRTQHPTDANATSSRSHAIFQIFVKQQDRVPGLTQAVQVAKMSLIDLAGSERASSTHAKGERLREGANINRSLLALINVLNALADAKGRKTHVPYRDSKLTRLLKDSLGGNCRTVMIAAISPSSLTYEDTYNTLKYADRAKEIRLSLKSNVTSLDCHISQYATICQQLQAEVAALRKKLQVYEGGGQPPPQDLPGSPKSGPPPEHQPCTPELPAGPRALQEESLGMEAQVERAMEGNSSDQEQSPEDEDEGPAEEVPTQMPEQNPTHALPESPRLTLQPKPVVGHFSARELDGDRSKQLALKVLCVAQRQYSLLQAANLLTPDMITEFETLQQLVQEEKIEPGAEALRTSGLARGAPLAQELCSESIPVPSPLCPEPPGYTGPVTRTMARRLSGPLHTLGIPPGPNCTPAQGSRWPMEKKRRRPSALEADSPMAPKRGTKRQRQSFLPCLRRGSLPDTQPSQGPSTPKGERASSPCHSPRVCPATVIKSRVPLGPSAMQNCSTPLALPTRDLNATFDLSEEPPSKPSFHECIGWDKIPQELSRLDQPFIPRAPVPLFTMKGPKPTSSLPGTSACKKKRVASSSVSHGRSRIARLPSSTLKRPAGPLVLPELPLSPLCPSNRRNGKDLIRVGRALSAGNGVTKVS

[28] = biological target: BAX; experiment: as above; conditions: three biological repeats measured in three technical repeats each; -log10(p-value) est. 1.7; read off a plot
[29] = biological target: EIF1; experiment: as above; conditions: three biological repeats measured in three technical repeats each; -log10(p-value) est. 1.2; read off a plot
[30] = biological target: RacGAP1 (UniProt Q9H0H5); experiment: as above; conditions: three biological repeats measured in three technical repeats each; -log10(p-value) est. 2.8; read off a plot
UniProt Q9H0H5, sequence (Q9H0H5 whole entry, looked up): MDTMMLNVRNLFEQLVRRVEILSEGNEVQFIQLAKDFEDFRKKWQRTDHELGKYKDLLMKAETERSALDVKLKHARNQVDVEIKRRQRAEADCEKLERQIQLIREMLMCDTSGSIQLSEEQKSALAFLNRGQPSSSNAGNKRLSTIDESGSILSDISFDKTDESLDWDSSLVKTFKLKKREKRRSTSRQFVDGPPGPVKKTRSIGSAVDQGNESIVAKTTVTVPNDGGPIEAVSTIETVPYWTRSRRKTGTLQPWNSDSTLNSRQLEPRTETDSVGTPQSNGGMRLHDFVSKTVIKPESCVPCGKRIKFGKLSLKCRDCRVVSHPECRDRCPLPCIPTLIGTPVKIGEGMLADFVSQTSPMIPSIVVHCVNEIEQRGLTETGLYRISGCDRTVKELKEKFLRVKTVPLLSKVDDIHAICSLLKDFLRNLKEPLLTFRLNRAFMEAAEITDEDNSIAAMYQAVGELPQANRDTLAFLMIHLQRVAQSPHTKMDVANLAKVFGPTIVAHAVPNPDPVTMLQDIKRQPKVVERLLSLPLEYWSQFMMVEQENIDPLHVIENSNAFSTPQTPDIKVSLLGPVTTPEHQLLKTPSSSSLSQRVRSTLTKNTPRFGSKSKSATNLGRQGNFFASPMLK

[31] = biological target: UBL4A; experiment: as above; conditions: three biological repeats measured in three technical repeats each; -log10(p-value) est. 1.4; read off a plot
[32] = biological target: COPS7A; experiment: as above; conditions: three biological repeats measured in three technical repeats each; -log10(p-value) est. 2.2; read off a plot
[33] = biological target: NUP35; experiment: as above; conditions: three biological repeats measured in three technical repeats each; -log10(p-value) est. 3.6; read off a plot
[34] = biological target: TIMM13; experiment: as above; conditions: three biological repeats measured in three technical repeats each; -log10(p-value) est. 2.6; read off a plot
[35] = biological target: TUBB4A; experiment: as above; conditions: three biological repeats measured in three technical repeats each; -log10(p-value) est. 3.8; read off a plot
[36] = biological target: TUBA1A; experiment: as above; conditions: three biological repeats measured in three technical repeats each; -log10(p-value) est. 3.7; read off a plot
[37] = biological target: GPHN; experiment: as above; conditions: three biological repeats measured in three technical repeats each; -log10(p-value) est. 1.3; read off a plot
[38] = biological target: FAM91A1; experiment: as above; conditions: three biological repeats measured in three technical repeats each; -log10(p-value) est. 3.0; read off a plot
[39] = biological target: TUBB2B; experiment: as above; conditions: three biological repeats measured in three technical repeats each; -log10(p-value) est. 3.6; read off a plot
[40] = biological target: SMG8; experiment: as above; conditions: three biological repeats measured in three technical repeats each; -log10(p-value) est. 2.2; read off a plot

**Q.** For “Strep-tagged APC4 wild type of the recombinant APC/C, SUMOylated in vitro (from UniProt Q9UJX5;P55854) K772R; K798R”, which other: LFQ ratio (WT/mutant, log2) [1] is on record?
**A.** 0.25 log2

**Q.** What about the other: LFQ ratio (WT/mutant, log2) [2] of the same substance?
**A.** 0.36 log2

**Q.** What about the other: LFQ ratio (WT/mutant, log2) [3] of the same substance?
**A.** 0.35 log2

**Q.** And the other: LFQ ratio (WT/mutant, log2) [4]?
**A.** 0.4 log2

**Q.** What about the other: LFQ ratio (WT/mutant, log2) [5] of the same substance?
**A.** 0.33 log2

**Q.** What about the other: LFQ ratio (WT/mutant, log2) [6] of the same substance?
**A.** 0.34 log2

**Q.** And the other: LFQ ratio (WT/mutant, log2) [7]?
**A.** 0.37 log2

**Q.** And the other: LFQ ratio (WT/mutant, log2) [8]?
**A.** 0.44 log2

**Q.** What about the other: LFQ ratio (WT/mutant, log2) [9] of the same substance?
**A.** 0.22 log2

**Q.** What about the other: LFQ ratio (WT/mutant, log2) [10] of the same substance?
**A.** 0.4 log2

**Q.** And the other: LFQ ratio (WT/mutant, log2) [11]?
**A.** 0.49 log2

**Q.** And the other: MS/MS ratio (WT/mutant, log2) [12]?
**A.** 0.12 log2

**Q.** What about the other: MS/MS ratio (WT/mutant, log2) [13] of the same substance?
**A.** 0.24 log2

**Q.** And the other: MS/MS ratio (WT/mutant, log2) [14]?
**A.** 0.26 log2

**Q.** What about the other: MS/MS ratio (WT/mutant, log2) [15] of the same substance?
**A.** 0.2 log2

**Q.** And the other: MS/MS ratio (WT/mutant, log2) [16]?
**A.** 0.31 log2

**Q.** What about the other: MS/MS ratio (WT/mutant, log2) [17] of the same substance?
**A.** 0.23 log2

**Q.** What about the other: MS/MS ratio (WT/mutant, log2) [18] of the same substance?
**A.** 0.19 log2

**Q.** What about the other: MS/MS ratio (WT/mutant, log2) [19] of the same substance?
**A.** 0.34 log2

**Q.** And the other: MS/MS ratio (WT/mutant, log2) [20]?
**A.** 0.17 log2

**Q.** And the other: MS/MS ratio (WT/mutant, log2) [21]?
**A.** 0.08 log2

**Q.** And the other: MS/MS ratio (WT/mutant, log2) [22]?
**A.** 0.17 log2

**Q.** How did the other: Ratio (log2) of protein intensities, wild-type APC4 / mutant APC4 [23] turn out when “SUMOylated recombinant APC/C containing APC4 wild type (from UniProt Q9UJX5;P55854;Q9UJX3;Q9NYG5;Q9H1A4;Q9UJX6;P30260;Q9UJX4;Q9UJX2;P60006) K772R; K798R” was run?
**A.** -1.9 log2

**Q.** What about the other: Ratio (log2) of protein intensities, wild-type APC4 / mutant APC4 [24] of the same substance?
**A.** 2.5 log2

**Q.** And the other: Ratio (log2) of protein intensities, wild-type APC4 / mutant APC4 [25]?
**A.** -2.9 log2

**Q.** And the other: Ratio (log2) of protein intensities, wild-type APC4 / mutant APC4 [26]?
**A.** 3.8 log2

**Q.** What about the other: Ratio (log2) of protein intensities, wild-type APC4 / mutant APC4 [27] of the same substance?
**A.** 1.8 log2

**Q.** What about the other: Ratio (log2) of protein intensities, wild-type APC4 / mutant APC4 [28] of the same substance?
**A.** 1.3 log2

**Q.** What about the other: Ratio (log2) of protein intensities, wild-type APC4 / mutant APC4 [29] of the same substance?
**A.** -1.6 log2

**Q.** And the other: Ratio (log2) of protein intensities, wild-type APC4 / mutant APC4 [30]?
**A.** -1.6 log2

**Q.** And the other: Ratio (log2) of protein intensities, wild-type APC4 / mutant APC4 [31]?
**A.** -1.4 log2

**Q.** And the other: Ratio (log2) of protein intensities, wild-type APC4 / mutant APC4 [32]?
**A.** 1 log2

**Q.** And the other: Ratio (log2) of protein intensities, wild-type APC4 / mutant APC4 [33]?
**A.** -1.4 log2

**Q.** What about the other: Ratio (log2) of protein intensities, wild-type APC4 / mutant APC4 [34] of the same substance?
**A.** -1.8 log2

**Q.** What about the other: Ratio (log2) of protein intensities, wild-type APC4 / mutant APC4 [35] of the same substance?
**A.** -1 log2

**Q.** And the other: Ratio (log2) of protein intensities, wild-type APC4 / mutant APC4 [36]?
**A.** -1.5 log2

**Q.** What about the other: Ratio (log2) of protein intensities, wild-type APC4 / mutant APC4 [37] of the same substance?
**A.** -1.7 log2

**Q.** And the other: Ratio (log2) of protein intensities, wild-type APC4 / mutant APC4 [38]?
**A.** 2.4 log2

**Q.** What about the other: Ratio (log2) of protein intensities, wild-type APC4 / mutant APC4 [39] of the same substance?
**A.** 4.3 log2

**Q.** What about the other: Ratio (log2) of protein intensities, wild-type APC4 / mutant APC4 [40] of the same substance?
**A.** -1 log2

Source: paper PMC5856775
